The test addresses T1, GST-TRN-SR2 (transportin-SR2) (UniProt Q9Y5L0-2 1-923).
T1 construct: transportin-SR2 (TRN-SR2, TNPO3, transportin 3); also called TNPO3; transportin 3; source: recombinant, expressed from pGEX-6P-2, purified using Glutathione Sepharose Resin
T1 sequence (looked up): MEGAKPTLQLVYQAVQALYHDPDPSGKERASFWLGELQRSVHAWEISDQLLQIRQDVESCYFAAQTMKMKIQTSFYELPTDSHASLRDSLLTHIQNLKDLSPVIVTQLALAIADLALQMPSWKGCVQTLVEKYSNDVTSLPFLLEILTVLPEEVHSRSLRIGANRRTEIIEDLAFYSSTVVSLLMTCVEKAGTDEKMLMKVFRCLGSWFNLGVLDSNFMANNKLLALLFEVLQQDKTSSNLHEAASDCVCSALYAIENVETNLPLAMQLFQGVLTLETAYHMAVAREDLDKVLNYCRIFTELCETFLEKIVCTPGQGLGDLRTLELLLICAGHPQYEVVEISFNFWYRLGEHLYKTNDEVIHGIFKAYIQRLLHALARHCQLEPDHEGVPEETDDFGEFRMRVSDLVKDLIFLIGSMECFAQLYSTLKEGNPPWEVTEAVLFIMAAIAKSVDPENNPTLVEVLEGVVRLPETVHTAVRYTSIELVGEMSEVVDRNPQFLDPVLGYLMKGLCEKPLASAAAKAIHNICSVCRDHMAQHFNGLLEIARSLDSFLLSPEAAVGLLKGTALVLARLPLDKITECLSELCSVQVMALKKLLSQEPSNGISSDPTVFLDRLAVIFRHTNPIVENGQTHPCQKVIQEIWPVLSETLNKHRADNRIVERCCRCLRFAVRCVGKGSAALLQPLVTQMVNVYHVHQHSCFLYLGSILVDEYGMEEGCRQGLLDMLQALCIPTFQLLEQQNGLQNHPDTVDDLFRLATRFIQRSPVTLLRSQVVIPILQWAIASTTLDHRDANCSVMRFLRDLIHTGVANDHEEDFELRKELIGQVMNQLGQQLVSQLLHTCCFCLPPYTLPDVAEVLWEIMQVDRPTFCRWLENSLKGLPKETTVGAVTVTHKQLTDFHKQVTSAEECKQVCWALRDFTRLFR
Description: AlphaScreen or HTRF; 10 nM GST-TRN-SR2 titrated with 1 to 150 nM His6-tagged protein; glutathione donor and nickel-chelate acceptor beads; 25 mM Tris/HCl pH 7.4, 150 mM NaCl, 1 mM MgCl2, 0.1% Tween-20, 0.1% BSA; 1 h at 4°C, then 1.5 h at room temperature with beads; apparent Kd. Conditions: both partners purified.

B1: HIV-1 integrase, C-terminally His6-tagged (enzyme)
chain: FLDGIDKAQEEHEKYHSNWRAMASDFNLPPVVAKEIVASCDKCQLKGEAMHGQVDCSPGIWQLDCTHLEGKVILVAVHVASGYIEAEVIPAETGQETAYFLLKLAGRWPVKTVHTDNGSNFTSTTVKAACWWAGIKQEFGIPYNPQSQGVIESMNKELKKIIGQVRDQAEHLKTAVQMAVFIHNFKRKGGIGGYSAGERIVDIIATDIQTKELQKQITKIQNFRVYYRDSRDPVWKGPAKLLWKGEGAVVIQDNSDIKVVPRRKAKIIRDYGKQMAGDDCVASRQDED
As for B1, the Kd was found to be 36.3 ± 2.3 nM.

B2: MLV integrase, C-terminally His6-tagged (enzyme)
chain: IENSSPYTSEHFHYTVTDIKDLTKLGAIYDKTKKYWVYQGKPVMPDQFTFELLDFLHQLTHLSFSKMKALLERSHSPYYMLNRDRTLKNITETCKACAQVNASKSAVKQGTRVRGHRPGTHWEIDFTEIKPGLYGYKYLLVFIDTFSGWIEAFPTKKETAKVVTKKLLEEIFPRFGMPQVLGTDNGPAFVSKVSQTVADLLGIDWKLHCAYRPQSSGQVERMNRTIKETLTKLTLATGSRDWVLLLPLALYRARNTPGPHGLTPYEILYGAPPPLVNFPDPDMTRVTNSPSLQAHLQALYLVQHEVWRPLAAAYQEQLDRPVVPHPYRVGDTVWVRRHQTKNLEPRWKGPYTVLLTTPTALKVDGIAAWIHAAHVKAADPGGGPSSRLTWRVQRSQNPLKIRLTREAP
notes: integrase (IN) of murine leukemia virus (MLV); also called His6-tagged MLV IN; not shown: His6, C-terminal, kept
For the molecule B2, the Kd was 17.5 ± 0.5 nM.

The record behind these values is paper PMC3041740, “Interplay between HIV Entry and Transportin-SR2 Dependency” (Retrovirology, 2011).
